The source of these data is patent US20140350225A1 (JINAN UNIVERSITY, published 2014).

The assay concerns the target T1, basic Fibroblast Growth Factor (bFGF) (human, UniProt P09038 143-288, limits assumed).
T1 construct: Bought recombinant protein; It was coated on ELISA plates; also called recombined humanized bFGF; antigen bFGF
The experiment in a line: indirect ELISA: bFGF coated at 0.5 ug/ml, anti-His-tag detection, A450. How it is done: The recombined humanized bFGF (Sigma-Aldrich Co.) was diluted to 0.5 μg/ml with carbonate buffer solution (0.05 mol/L, pH9.6) to coat ELISA plates at an amount of 100 μL/well, and incubated at 37° C. for 3 h. After discarding the liquid in the well, the plates were washed with PBST (PBS, 0.015 mol/L, pH 7.4, comprising Tween 20 0.05% (v/v)) for three times, blocked with fat-free milk-PBST 5% (wt), added with the ds-Diabody and anti-bFGF ScFv prepared according to example 1 at a certain concentration to achieve an amount of 100 μL/well. Then the plates were incubated at 37° C. for 1 h, washed with PBST for three times, added with 100 μL/well diluted anti-His-tag mouse monoclonal antibody 1:2000 (v/v) (sigma-aldrich Co.), incubated at 37° C. for 1 h, washed with PBS-T for three times again, and then added with diluted HRP marked goat anti-mouse polyclonal antibody (1:8000 (v/v) (sigma-aldrich Co.), and incubated at 37° C. for 0.5 h. After that, the plates were washed with PBS-T for 5 times, stained by TMB and detected at A450. Meanwhile, PBS was used as a negative control.
Background: An ELISA detects its analyte on a solid surface through an enzyme-linked reagent.

T1 sequence (P09038 143-288 limits assumed): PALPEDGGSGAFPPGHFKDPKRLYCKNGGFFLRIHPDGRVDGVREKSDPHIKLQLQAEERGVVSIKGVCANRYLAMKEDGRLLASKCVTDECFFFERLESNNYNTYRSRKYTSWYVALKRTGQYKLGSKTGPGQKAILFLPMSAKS

B1: anti-bFGF humanized ds-Diabody (other)
chain: QSVLTQPASVSGSPGQSITISCTGTSSDVGGYNYVSWYQQHPGKAPKLMIYDVSNRPSGVSNRFSGSKSGNTASLTISGLQAEDEADYYCSSYTSSSTVVFGCGTKLTVLGGGGSQVQLQESGGGLVQPGGSLRLSCAASGFTFSSYEMNWVRQAPGKCLEWVSYISSSGSTIYYADSVKGRFTISRDNAKNSLYLQMNSLRAEDTAVYYCARELTGDWGAFDIWGQGTMVTVSSHHHHHH
notes: Dimer of two VL-GGGGS-VH chains joined covalently by disulfide bonds between Cys at VL 100 and Cys at VH 44; Bivalent; Expressed in HEK 293T cells and purified on a Ni column; also called disulfide bond stabilized-diabody; VL-GGGGS-VH; not shown: N-terminal residues from the vector p3XFLAG-Myc-CMV-25, if any stay on the secreted protein
Consider B1, for which the binding result is on record as “binds”.
